In patent US7364737 (Scripps Research, dated 2008):

Experiments:
[1] = target: T1, baculovirus-expressed FG fusion glycoprotein (respiratory syncytial virus, UniProt P03420 26-489; P03423 97-279); assay: inhibition ELISA, free FG against coated FG
T1 construct: also called RSV FG glycoprotein; recombinant FG glycoprotein

[2] = target: RSV (subgroup A) F glycoprotein (respiratory syncytial virus subgroup A …, UniProt P03420 26-574); assay: cell-based or functional assay
Sequence of RSV (subgroup A) F glycoprotein (P03420 26-574): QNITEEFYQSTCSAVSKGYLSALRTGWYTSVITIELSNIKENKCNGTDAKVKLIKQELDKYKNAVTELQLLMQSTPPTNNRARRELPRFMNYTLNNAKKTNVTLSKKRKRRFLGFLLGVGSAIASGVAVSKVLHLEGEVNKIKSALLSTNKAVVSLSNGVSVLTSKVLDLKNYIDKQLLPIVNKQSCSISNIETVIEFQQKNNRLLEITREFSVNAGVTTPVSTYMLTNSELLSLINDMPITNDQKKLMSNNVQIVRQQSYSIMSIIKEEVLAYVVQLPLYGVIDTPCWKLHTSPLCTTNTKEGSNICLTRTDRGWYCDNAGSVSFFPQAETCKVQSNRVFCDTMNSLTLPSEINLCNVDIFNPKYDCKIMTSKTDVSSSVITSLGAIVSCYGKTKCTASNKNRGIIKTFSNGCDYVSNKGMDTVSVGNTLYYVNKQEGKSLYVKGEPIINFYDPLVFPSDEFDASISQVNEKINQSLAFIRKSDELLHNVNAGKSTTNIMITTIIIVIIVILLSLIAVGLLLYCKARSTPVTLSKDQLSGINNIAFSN

T1 sequence (P03420 26-489, tags or fused parts left off): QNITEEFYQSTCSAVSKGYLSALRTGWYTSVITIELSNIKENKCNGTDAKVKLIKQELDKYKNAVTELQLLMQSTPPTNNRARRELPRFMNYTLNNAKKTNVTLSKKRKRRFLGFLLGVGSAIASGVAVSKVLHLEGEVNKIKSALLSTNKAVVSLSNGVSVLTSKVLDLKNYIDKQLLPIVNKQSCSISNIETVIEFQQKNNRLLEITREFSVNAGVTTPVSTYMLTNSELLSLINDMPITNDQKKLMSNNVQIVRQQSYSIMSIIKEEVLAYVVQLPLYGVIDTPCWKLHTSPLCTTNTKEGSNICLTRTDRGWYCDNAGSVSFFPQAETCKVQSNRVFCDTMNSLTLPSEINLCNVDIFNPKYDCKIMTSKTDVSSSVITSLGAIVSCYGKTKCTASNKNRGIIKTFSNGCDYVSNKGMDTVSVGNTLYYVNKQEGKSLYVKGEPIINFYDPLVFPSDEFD

Binder	Ka [1] [M⁻¹]	Concentration of Fab Needed for 60% Plaque Reduction (µg/ml), RSV; purified from lysate [2] [µg/mL]	Maximum Neutralization of RSV (Subgroup A); purified from lysate [2] [%]
Fab clone 19 (Fab, V domains shown, Human IgG1 kappa Fab made as soluble Fab in E. coli; Variable domains are identical to clone 13; also called Fab 19; RSV Fab 19) VH: QVKLLEESGGGLVRLAGSLRLSCAASGTTLSGYTMHWVRQAPGKGLEWVSSITGGSNFINYSDSVKGRFTISRDNAKNSLYLQMNSLTAEDTAVYYCATAPIAPPYFDHWGQGTLVTVSS VL: ELTQSPSSLSASVGDRVTITCRATQSVSNFLNWYQQKPGEAPTLLIYDASTSQSGVPSRFSGSGSGMDFSLTISSLQPEDLAMYYCQASINTPLFGGGTRIDMR	~1e+08	0.4	100
Fab clone 13 (Fab, V domains shown, Human IgG1 kappa Fab made as soluble Fab in E. coli; Variable domains are identical to clone 19; also called Fab 13; rsv 13H/13L) VH: QVKLLEESGGGLVRLAGSLRLSCAASGTTLSGYTMHWVRQAPGKGLEWVSSITGGSNFINYSDSVKGRFTISRDNAKNSLYLQMNSLTAEDTAVYYCATAPIAPPYFDHWGQGTLVTVSS VL: ELTQSPSSLSASVGDRVTITCRATQSVSNFLNWYQQKPGEAPTLLIYDASTSQSGVPSRFSGSGSGMDFSLTISSLQPEDLAMYYCQASINTPLFGGGTRIDMR	~1e+08	0.2	98
Fab clone 11 (Fab, V domains shown, Human IgG1 kappa Fab from a pComb3 phage library, made as soluble Fab in E. coli; also called Fab 11; rsv 11H/11L) VH: VKLLEQSGGGLVQPGGSLRLSCAVSGVTFSAYAMSWVRQAPGKGLEWVSGISGSGDSTDYADSVKGRLTISRDNSKNTLYLQMNSLRAEDTAIYYCASHLPDYWNLDYTRFFYYMDVWGKGTTVTVSS VL: ELTQSPGTLSLSPGERATLSCRATQSISSNYLAWYQQRPGQAPRLLIYGASNRATDIPDRFSGSGSGTDFTLTISRLEPEDFAMYYCQQYDISPYTFGQGTKLEIK	~1e+08	1.8	88
